Assay results published in paper PMC7020254.

Experiments:
P00451 [1] = test: AUC; sedimentation velocity, 105,000 g, 20 C, A280; Helixate in 2x formulation buffer treated with 80 uM ClO- or control buffer, then buffer exchange on a desalting column; c(s) 0-100 S; aggregates 12-100 S relative to 5-100 S
P00451 [2] = test: AUC; sedimentation velocity, 105,000 g, 20 C, A280; Helixate desalted into HBS/Ca/PS-80, treated 10 min with 80 uM ClO- or control buffer, exchanged into HBS/Ca/PS-80; c(s) 0-100 S; aggregates 12-100 S relative to 5-100 S
P00451 [3] = test: AUC; sedimentation velocity, 105,000 g, 20 C, A280; Helixate in its therapeutic formulation buffer; c(s) 0-200 S; aggregates integrated 15-100 S
P00451 [4] = test: AUC; sedimentation velocity, 105,000 g, 20 C, A280; Helixate exchanged into HBS/Ca/PS-80 and immediately run; c(s) 0-200 S; aggregates integrated 12-100 S

Row | Substance | percent of signal in aggregates (12-100 S relative to 5-100 S) (P00451 [1]) | percent of signal in aggregates (12-100 S relative to 5-100 S) (P00451 [2]) | percent of signal in aggregates (15-100 S) (P00451 [3]) | percent of signal in aggregates (12-100 S) (P00451 [4])
1 | Helixate FS (recombinant full-length factor VIII) oxidized with 80 uM ClO- | 14.5 and 9.2% | 13.4 and 13.3% of the signal | – | –
2 | Helixate FS (recombinant full-length factor VIII), non-oxidized | 14.5 and 9.2% | 13.4 and 13.3% of the signal | 18.9% and 15.9% | 18.9% and 15.9%
